In the DeepSol protein solubility set:

Test: soluble on expression in E. coli; label from the status in PepcDB or PDB records

Soluble on expression in E. coli, soluble:
GSHVFKSRLQEYAQKYKLPTPVYEIVKEGPSHKSLFQSTVILDGVRYNSLPGFFNRKAAEQSAAEVALRELAK
MERKINRREKEKEYEGKHNSLEDTDQGKNCKSTLMTLNVGGYLYITQKQTLTKYPDTFLEGIVNGKILCPFDADGHYFIDRDGLLFRHVLNFLRNGELLLPEGFRENQLLAQEAEFFQLKGLAEEVKSRWEKEQLTPRETTFLEITDNHDRSQGLRIFCNAPDFISKIKSRIVLVSKSRLDGFPEEFSISSNIIRFKYFIKSENGTRLVLKEDNTFVCTLETLKFEAIMMALKCGFRLLTSLDCSKGSIVHSDALHFIK
SKRFVIGIGGVTNGGKTTLAKSLQKHLPNCSVISQDDFFKPESEIDIDENGFLQYDVLEALNMEKMMSAVSCWMENPGSSAGPAALESAQGVPILIIEGFLLFNYKPLDTIWNRSYFLTVPYEECKRRRSTRVYEPPDPPGYFDGHVWPMYLKHRQEMSSITWDIVYLDGTRSEEDLFSQVYEDVKQELEKQNGL
MSLSDTHIPLPERLRPRDLSEIIGQDHLLGEHAPLRQMIDQGHLPSIIFWGPPGVGKTTIALLLAQAVDRPFVSLSALNTGVKELREIIAESGDLLTPVVFIDEIHRFNKSQQDALLNAVEKGKITLIGATTENPSFEVNSALLSRCQVYTLNVLDSAAIQNLIDRAIDSDSFLKQRHIHIEEYEALIQFAAGDARKALNLIDLIASTFEPDQENIVTNAVTVKVAQQNIARYDKSGEQHYDIISAFIKSIRGSDPDAALYWMARMIKGGEDPVFIARRMLIAASEDIGNSNPNALLLAGECFRSVQAVGMPEARIILGQCAVYLATSPKSNSTYLAIDRALALAEKTANLPVPLHLRNAPTKLMKQQGYGADYLYPHHYPEHFVLQEYLPPELKGTKLYEFSRNKREVEGERLQQRRWQQDQEGHHHHHH
DENASAAEQVNKTIIGIDPGSGIMSLTDKAMKDYDLNDWTLISASSAAMTATLKKSYDRKKPIIITGWTPHWMFSRYKLKYLDDPKQSYGSAEEIHTITRKGFSKEQPNAAKLLSQFKWTQDEMGEIMIKVEEGEKPAKVAAEYVNKHKDQIAEWTKGVQKVKGDKINLAYVAWDSEIASTNVIGKVLEDLGYEVTLTQVEAGPMWTAIATGSADASLSAWLPNTHKAYAAKYKGKYDDIGTSMTGVKMGLVVPQYMKNVNSIEDLKK

Soluble on expression in E. coli, not soluble:
MNQLINITLNENQEPVVSGRDLHNVLNIKTQYTKWLERMSEYGFEENVDYIAISQKRLTAQGNRTEYIDHVLKLDMAKEIAMLQRNEKSKQVRKYFIQVEKDFNSPEKIMARALLMADKKITNLTMENNQLQLDLKEAQKQARYLDLIIESKGALRVTQIAADYGMSVNKFNKTLLEFGVQHKVNGQWILYKRHMGKGYTDSHTFDYQDKNGHTRANVTTTWTQKGRLFLYELLKDNNILPLIEQEDIV
MKNTQFALFMVLNGRATEALTFYQEAFAGDILFKITNQEFKERLNPSLTIPAGEEHWLSHSILQMDTFQLQLADNPLFAGMNTTPTEQLTLSLTVNSRHSAKTIFEKLTCHPESCIIQEPIENEFATFYAIVKDPFGLVTQITHEKQADPTKKGS
MELGQAMVTVAGIGCRKGAASDAIIAAVRAAERAFGVTVDYLATAPLKADEAGLAEAAKGLSLSLEIVAQERLEAVAAETMTFSQASLDHSGSPSVSEAAALAAAGAGARLVAPRLVVGDVTVAIAMTSDAPHGSRSAIEYGEQE
MGSDKIHHHHHHMKIALDPYMIRHLPLDRLPHAVAELGYDQIELSPRSDFLDWWVMPRATRARMTAFRHALRASGVGLASLQPMYRWASPFEDERQWAVRCWKKAIEVATEMECALMVSEFGRGASPERSVGERPGANPKELCEAAWFRSMDELLPILERERIVLSVEPHPEDWIEQLQPAIDIVTNLGSPSLKLSYIAPHTFYYGDDMAAMIAQAAPILAHVRVADTFDHRKSSQLRYIVNPPGSNQIRVHQHLDIGQGEIDWDTFFRALGDAGFDGVMSSCVFAWEDRAEASSRYMRDTIQRYVDRHFDRAAAR
MRYLPIFVFLGSFGYTETTLTKELIKDAAEKCCTRNRQECCIEIMKFGTPIRCGYDRDPKLPGYVYKCLQNVLFAKEPKKKINLDDSVCCSVFGNDQNDSGRRCENRCKNLMTSPSIDAATRLDSIKSCSLLDNVLYKCFEKCRSLRKDGIKIEVLQFEEYCNATFIQKRTFRGV
MGSDKIHHHHHHMEKDIFVELNFLIMIIDDALPKFDLPVDFVTDDSITGDILNQYGRFPCHIKAGVFVLCTRGTVRATINLSEYTITHNDFVTVLPGSFIQIHEVSSDTRVCFAGFSSEFISRVSYVETYLDFLPMILDNPIMALQEEVAQLYRNAFSLLIRAYSLPNTLDNKEILMSIFTIFFQGVGELYKRCKPTTNEPIKREHELYRQFIQLLMTHYTQEHEVSFYAKKCGVTPAHFSGAIRKASGHSPLAIITGIIIMNAKAQLKSTRLPVKEIAFSLGFNNLSFFNKYFRKHVKMTPQEYREC
MGSDKIHHHHHHMEILMLKTFKAVVDEDGIKGAADKLHTVQSNITSRIKKLEKELDTKLFTIIGRKLQLTPSGQQLCEYADQILQLEYQATSAILRNKGTYELRVGMPETFAAVHMPMALKKLKLNHAEIRTKIHTDTSERLVFSVLNNKVDCAAIGNAPKHENLIIIPIVKEELIMVTPRDSEHDPVLFVRDEGCGYRKHALIWQQKAGRGNDELMVMSSADGVLGCIAAGLGYTIIGKNMVAGSRYEKSLVMTPVSHGPKHVQLSIVYRKDSPLESGILTLAKLLTK
MGSDKIHHHHHHMKVLEGIRVLDFGRFIAGPFCAALLADFGADVIRIDRVGGSEDRFVAPVTSEGEGAFFLQVNRNKRSITLDLDSEEGQAVVRKLLLNTDVVVANMPPRTIAALGLDYESLRKVKPDIILTASSAFGADPAVRDRVGFDGVGQAMSGAVHLTGLPDHPMKSMVPVVDFSTALCCALGTMMALYERKSSGQGQEVGASLLHTALTLSSGSLIEEALRGLNRQATVNRSPTYGPSDIFRVKDGWIIAQVIGPAMFKRWTRMVGRPELLDDPRFADDAMRGEHGEVLSDIMSDWCAGRTREEALAILEGARIPGGPVNTPRQALEDEVVRASGAFHGVDYPGAAAQVPLVATPVSLSRTAPAIARRPPTAGEHTEEVLRDAGYAPGEIVALRERGVI
MGSDKIHHHHHHMKIPKRLQPLVDDGLIDDVLQRLKSGKEADVYTVLCGDKIQCAKVYKEAMQRSFKQAVQYQEGRKVRNTRNARAMQKSSKFGRKQQEESWQTAEVEALFRLANAGVRVPQPYICIDGVLLMELVTDVDGAVAPRLSDVILTEESAIADFDTMIRNIVRMLCVGIVHGDLSEFNVLIDAQGPVIIDLPQAVDAAANNHAESMFARDVNNITAYYGQFAPQLLQTRYAQEIWMLYEDGKLTPETALTGLFVEAVHEVDMGSLIDEIIAAEDEFYERQRAKKERDDE
MQSKLITELTDLETAFHIRKEVFVKEQGVPLTDEFDTFDEIGEQCKHILVYYHELPVGTGRIRFVDGVGKLERICILKDYRTYGLGKVIIQTLEEIARNEQATKVKLHGQTQAEGFYKKLGYETSSDIFMEDGIPHILMTKMLS
MAEFASAEFDRMLAEARSMLDAMRSGRSAPSDEEEVKGVGEAADGRVTVTVNSSGLLESVELNPRLLRLPAEEIGEHIVTAVNAALQDFRTKANQAVGAASVDLNALAASMQELQDQSVRQMAQIGQAFNELLTKLDGMR
MVLPKKEFVLSHTFTDVSKMEKDISVFSPGEEHFNVSWNMSISCEGDHLGVFLHCHKSRGKETMWTIDTEHQFTLKTSSGKAYREDDNFNFQFSNAHSYGNGTTEFISWNKLIKDYLIDDVITVEAAVKIIKTTGISKKALKGFEKSNEEFSDVVLAVGDKEFFVLKQFLAYHSSYFKSLLLGKFAESDQKEVTLQDIDPTDFQNLLEVLYGEPAIDDETIDGILHLAHMYDMSVPLRKCEEFLINESEKSMKDQLKIAKQYQLEKLKKACLLKINTVDEIKAAVAGKLSDMDPTVVAALF
